{"source": "patent US7179464", "about": "(Kyowa Kirin, dated 2007)", "key": {"[1]": {"biological_target": "T1, human IL-5R α chain expressed on cells (human, UniProt Q01344 21-420)", "T1 construct": "whole, on cells; also called hIL-5R α; CTLL-2(h5R)", "T1 sequence (looked up)": "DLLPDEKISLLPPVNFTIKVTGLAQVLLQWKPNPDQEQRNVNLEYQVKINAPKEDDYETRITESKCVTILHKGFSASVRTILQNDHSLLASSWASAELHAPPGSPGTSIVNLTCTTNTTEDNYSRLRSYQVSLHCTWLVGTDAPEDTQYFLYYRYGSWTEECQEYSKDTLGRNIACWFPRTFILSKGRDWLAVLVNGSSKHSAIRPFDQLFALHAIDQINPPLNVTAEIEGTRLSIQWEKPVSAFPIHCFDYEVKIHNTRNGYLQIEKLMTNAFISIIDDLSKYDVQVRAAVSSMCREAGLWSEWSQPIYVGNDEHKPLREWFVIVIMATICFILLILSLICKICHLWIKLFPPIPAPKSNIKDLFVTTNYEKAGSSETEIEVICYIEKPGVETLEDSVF", "assay": "immunocyte staining, flow cytometry on CTLL-2(h5R) cells", "experimental": "(§1) Briefly, 5 ×10^5 cells obtained by transfecting a human IL-5R gene into CTLL-2 cells (ATCC TIB 214) [hereinafter referred to as \"CTLL-2(h5R)\"] [J. Exp. Med., 177, 1523 (1993)] or 5 ×10^5 CTLL-2 cells as a control were suspended in an immunocyte staining buffer (PBS containing 1% BSA, 0.02% EDTA and 0.05% sodium azide) and dispensed into a round bottom 96-well plate (100 μl/well). After centrifuging at 350×g for 1 minute at 4° C., the supernatant was discarded. Then, 50 μl of the immunocyte staining buffer containing 10 μg/ml of an hIL-5R α antibody were added to each well and reacted at 4° C. for 30 minutes. After the reaction, the immunocyte staining buffer was added (200 μl/well) and centrifuged at 350×g for 1 minute at 4° C. and then the supernatant was removed to wash the cells. The washing operation was further repeated twice. Thereafter, 50 μl of the immunocyte staining buffer containing FITC-labeled anti-mouse immunoglobulin antibody or FITC-labeled anti-human immunoglobulin antibody (both manufactured by Wako Pure Chemical Industries, Ltd.) diluted 30 folds with a staining buffer were added to each well and reacted at 4° C. for 30 minutes. After the reaction, a similar washing operation was repeated three times. Then, the cells were analyzed with a flow cytometer (Coulter)."}, "[2]": {"biological_target": "T1, human IL-5R α chain expressed on cells", "assay": "flow cytometry on CTLL-2(h5R) cells, antibody at 10 µg/ml", "experimental": "as §1"}}}
{"binder": "anti-human IL-5R α monoclonal antibody KM1257 (antibody, V domains shown, Mouse IgG1; also called hybridoma KM1257 (FERM BP-5133)) VH: EVQLVESGGDLVKPGGSLKLSCAASGFTFSDYGMAWIRQISDKRPEWVAAISSGGSYIHFPDSLKGRFTVSRDNAKNTLYLEMSGLKSEDTAMYYCARRGFYGNYRAMDYWGQGTSVTVSS VL: not shown", "values": [{"measurement": "binding result", "setting": "[1]", "result": "binds"}]}
{"binder": "anti-human IL-5R α chain human CDR-grafted antibody KM8399 (antibody, human IgG1, V domains shown, also called HV.3LV.0; pKANTEX1259HV3LV0) VH: EVQLVQSGAEVKKPGASVKVSCKASGYTFTSYVIHWVRQRPGQGLAWMGYINPYNDGTKYNERFKGKVTITSDRSTSTVYMELSSLRSEDTAVYLCGREGIRYYGLLGDYWGQGTLVTVSS VL: DIQMTQSPSSLSASVGDRVTITCGTSEDIINYLNWYQQKPGKAPKLLIYHTSRLQSGVPSRFSGSGSGTDFTLTISSLQPEDFATYYCQQGYTLPYTFGQGTKVEIK", "values": [{"measurement": "binding result", "setting": "[2]", "result": "binds"}]}
{"binder": "anti-human IL-5R α chain human CDR-grafted antibody KM9399 of human antibody IgG4 subclass (antibody, V domains shown, Same V regions as KM8399 (built from pKANTEX1259HV3LV0); also called pKANTEX1259HV3LV0γ4; transformant KM9399 (FERM BP-5647)) VH: EVQLVQSGAEVKKPGASVKVSCKASGYTFTSYVIHWVRQRPGQGLAWMGYINPYNDGTKYNERFKGKVTITSDRSTSTVYMELSSLRSEDTAVYLCGREGIRYYGLLGDYWGQGTLVTVSS VL: DIQMTQSPSSLSASVGDRVTITCGTSEDIINYLNWYQQKPGKAPKLLIYHTSRLQSGVPSRFSGSGSGTDFTLTISSLQPEDFATYYCQQGYTLPYTFGQGTKVEIK", "values": [{"measurement": "binding result", "setting": "[2]", "result": "binds"}]}
